Source: patent publication US20260199558A1, “INJECTABLE COMPOSITIONS FOR TREATING JOINT CONDITIONS” (Ohio State Innovation Foundation, priority 2022, published 2026)

Experiments:
[1] = test system: human cartilage endplate (CEP) cells; test: PDA nanoparticle / free bevacizumab dose effect on human cartilage endplate (CEP) cell viability; format: cell-based
[2] = test system: human annulus fibrosus (AF) cells; test: PDA nanoparticle / free bevacizumab dose effect on human annulus fibrosus (AF) cell viability; format: cell-based; details: doses higher than 1 mg/mL

## Bevacizumab
[1]; 1 mg/mL dosing
  cell viability: 30%
[1]; up to 0.5 mg/mL
  cell viability: > 80%
[2]
  cell viability: approximately 30%
